This is an account of results in article doi:10.1101/2020.06.22.166033.

For the experiment, the target named is biotinylated SARS-CoV-2 S2P probe (SARS-CoV-2-S2P-AVI) (SARS-CoV-2 | T4 phage) (UniProt P0DTC2). Briefly: SPR. (In general: Surface plasmon resonance follows binding to a sensor surface in real time, without labels.)

CR3022 Fab: the Kd came to 91.4 nM.

What is called Kd is the concentration at which binding is half-saturated. Low readings indicate tighter binding, high ones weaker binding.
